# Laboratory results as given in publication PMC9814900.
# Molecular target: MDM2 25-109 (Homo sapiens), Q00987
# Assay: BLI competition
# Details: modification not given
binder,measurement,value
AAFAAYWAALAAK [peptide 34],Kd,4.7 nM
